Drawing on PMC8123127, “Structural Bases for the Synergistic Inhibition of Human Thymidylate Synthase and Ovarian Cancer Cell Growth by Drug Combinations” (Cancers, 2021), this text covers Km for 1 protein.

Substrate in data set [1]: Nc1nc2c(c(=O)[nH]1)N1CN(c3ccc(C(=O)N[C@@H](CCC(=O)O)C(=O)O)cc3)CC1CN2
The experiment in a line: purified protein. The conditions noted are these: dUMP cofactor site in the catalytic pocket; varied: cofactor.

Substrate in data set [2]: O=c1ccn([C@H]2C[C@H](O)[C@@H](COP(=O)(O)O)O2)c(=O)[nH]1
The experiment in a line: purified protein. It is filed as biochemical, Homo sapiens. The conditions noted are these: mTHF substrate site in the catalytic pocket.

B1: human thymidylate synthase (hTS) (Homo sapiens) (protein)
chain: MPVAGSELPRRPLPPAAQERDAEPRPPHGELQYLGQIQHILRCGVRKDDRTGTGTLSVFGMQARYSLRDEFPLLTTKRVFWKGVLEELLWFIKGSTNAKELSSKGVKIWDANGSRDFLDSLGFSTREEGDLGPVYGFQWRHFGAEYRDMESDYSGQGVDQLQRVIDTIKTNPDDRRIIMCAWNPRDLPLMALPPCHALCQFYVVNSELSCQLYQRSGDMGLGVPFNIASYALLTYMIAHITGLKPGDFIHTLGDAHIYLNHIEPLKIQLQREPRPFPKLRILRKVEKIDDFKAEDFQIEGYNPHPTIKMEMAV
notes: His6-tag protein (non-cleavable N-terminal His6-tag)
Consider B1, for which the Km was determined as 5 µM in the data set “purified protein [1]” and 10 µM in “purified protein [2]”.

What is called Km is the concentration of substrate that gives half-maximal velocity.
